Results taken from patent US20110251375A1.
Read-outs that look alike come from different tables or passages of the source.

Tests used:
[1] = biological target: recombinant human Erythropoietin (rhEPO) (human) (UniProt P01588); assay: ELISA, no periplasmic extract; anti-His-(4) and goat anti-mouse IgG-AP alone on coated rhEPO; negative control, no-antigen well 0.090
[2] = biological target: hen egg lysozyme (hen) (UniProt P00698); assay: ELISA, no periplasmic extract; anti-His4 and anti-mouse HRP on coated HEL (100 µg/ml), 12 parallel readings
[3] = biological target: hen egg lysozyme (hen) (UniProt P00698); assay: ELISA, no periplasmic extract; anti-His4 and anti-mouse HRP on HEL coated at 200 µg/ml
[4] = biological target: hen egg lysozyme (hen) (UniProt P00698); assay: ELISA, no periplasmic extract; anti-His4 and anti-mouse HRP on HEL coated at 1.55 µg/ml
[5] = biological target: hen egg lysozyme (hen) (UniProt P00698); assay: ELISA, no periplasmic extract; anti-His4 and anti-mouse HRP on HEL coated at 50 µg/ml
[6] = biological target: hen egg lysozyme (hen) (UniProt P00698); assay: ELISA, no periplasmic extract; anti-His4 and anti-mouse HRP on HEL coated at 100 µg/ml
[7] = biological target: hen egg lysozyme (hen) (UniProt P00698); assay: ELISA, no periplasmic extract; anti-His4 and anti-mouse HRP on HEL coated at 3.125 µg/ml
[8] = biological target: hen egg lysozyme (hen) (UniProt P00698); assay: ELISA, no periplasmic extract; anti-His-(4) and goat anti-mouse IgG-HRP alone on coated HEL (20 µg/ml); negative control, no-antigen well 0.018
[9] = biological target: hen egg lysozyme (hen) (UniProt P00698); assay: ELISA, no periplasmic extract; anti-His4 and anti-mouse HRP on HEL coated at 6.25 µg/ml
[10] = biological target: hen egg lysozyme (hen) (UniProt P00698); assay: ELISA, no periplasmic extract; anti-His4 and anti-mouse HRP on coated HEL (100 µg/ml), 12 parallel readings; remark: listed apart in the source
[11] = biological target: hen egg lysozyme (hen) (UniProt P00698); assay: ELISA, no periplasmic extract; anti-His4 and anti-mouse HRP on HEL coated at 12.5 µg/ml
[12] = biological target: hen egg lysozyme (hen) (UniProt P00698); assay: ELISA, no periplasmic extract; anti-His4 and anti-mouse HRP on HEL coated at 25 µg/ml
[13] = biological target: hen egg lysozyme (hen) (UniProt P00698); assay: ELISA, no periplasmic extract; anti-His4 and anti-mouse HRP on HEL coated at 0.39 µg/ml

UniProt P00698, sequence (P00698 19-147 limits assumed): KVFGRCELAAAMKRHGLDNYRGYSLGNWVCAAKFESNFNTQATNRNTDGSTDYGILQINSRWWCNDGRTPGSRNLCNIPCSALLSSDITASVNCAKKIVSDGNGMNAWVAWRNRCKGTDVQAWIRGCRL
UniProt P01588, sequence (P01588 28-192 limits assumed): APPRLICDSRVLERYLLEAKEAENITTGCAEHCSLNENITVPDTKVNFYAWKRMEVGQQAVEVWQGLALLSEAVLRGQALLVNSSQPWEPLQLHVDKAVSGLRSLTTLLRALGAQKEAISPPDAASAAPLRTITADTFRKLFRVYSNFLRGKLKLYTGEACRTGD

absorbance, no periplasmic extract (control) [1]: 0.095 A 405/620 nm
A 492/620 background (antigen alone) [2]: 0.176 A 492/620
ELISA absorbance (no periplasmic extract) [3]: 0.449 A 492/620
ELISA absorbance (no periplasmic extract) [4]: 0.013 A 492/620
ELISA absorbance (no periplasmic extract) [5]: 0.165 A 492/620
ELISA absorbance (no periplasmic extract) [6]: 0.36 A 492/620
ELISA absorbance (no periplasmic extract) [7]: 0.017 A 492/620
absorbance, no periplasmic extract (control) [8]: 0.11 A 492/620 nm
ELISA absorbance (no periplasmic extract) [9]: 0.023 A 492/620
A 492/620 background (antigen alone) [10]: 0.133 A 492/620
ELISA absorbance (no periplasmic extract) [11]: 0.038 A 492/620
ELISA absorbance (no periplasmic extract) [12]: 0.072 A 492/620
ELISA absorbance (no periplasmic extract) [13]: 0.007 A 492/620
Substance: anti-His4 antibody (Qiagen)
